Each block holds one binder with its values, some of them ahead of it.
Assays:
polatuzumab vedotin = polatuzumab vedotin (humanized); experiment: SPR
human serum albumin = human serum albumin (human, UniProt P02768); experiment: SPR

Sequence of polatuzumab vedotin (humanized) (VH, as listed by the source, chain 1 of 2): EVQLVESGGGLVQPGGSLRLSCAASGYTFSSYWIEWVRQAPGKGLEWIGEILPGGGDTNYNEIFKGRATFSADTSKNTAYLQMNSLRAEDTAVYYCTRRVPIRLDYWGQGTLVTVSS
Sequence of polatuzumab vedotin (humanized) (VL, as listed by the source, chain 2 of 2): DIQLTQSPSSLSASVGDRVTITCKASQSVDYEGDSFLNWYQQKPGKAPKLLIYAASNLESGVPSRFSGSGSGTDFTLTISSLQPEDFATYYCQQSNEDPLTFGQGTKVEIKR

binding result (polatuzumab vedotin): no binding
B1: ABC3315 (antibody, V domains shown)
VH: EVQLVESGGGLVKPGGSLKLSCAASGFTFSGYAMSWFRQAPEKRLEWVATISSGGSYTYYLDSVKGRFTISRDNSKNTLYLQMSSLRSEDTAVYYCLASLITTDYFEYWGQGTLVTVSS
VL: DIVMTQSPSSLSASVGDRVTITCRASQDVGTAVAWYQQKPGQSPKLLIYWASTRHTGVPDRFSGSGSGTDFTLTISGLQSEDEADYFCQQYSNYPYTFGGGTKLEIKR
modifications: peg12-biotin conjugated, immobilized on streptavidin; vc-MMAE conjugate (ADC)

Kd (human serum albumin): 10.5 µM
B2: ABC3315-WE (antibody, V domains shown)
VH: B1 VH
VL: B1 VL

Kd (human serum albumin): 2.34 µM
B3: ABC3315-WEDD (antibody, V domains shown)
VH: B1 VH
VL: B1 VL

Reference: patent US20260347441 (published 2026)
